Reference: PMC3603003 (Molecular Plant, 2012)

Key:
[1] = target: the molecule itself; experiment: SEC
[2] = target: rabbit muscle actin, polymerized (F-actin) (rabbit, UniProt P68135 1-377); experiment: co-sedimentation

Kd [2]: 1830 nM
B1: NtWLIM2–His (recombinant tobacco LIM protein WLIM2, 6xHis-tagged) (natural protein, Nicotiana tabacum (tobacco), UniProt P93356 1-189, looked up)
chain: MSFIGTQQKCKACEKTVYPVELLSADGVNYHKSCFKCSHCKGTLKLSNFSSMEGVLYCKPHFEQLFKESGNFNKNFQSPAKSAEKLTPELTRSPSKAAGMFSGTQEKCATCGKTAYPLEKVTVENQSYHKTCFKCSHGGCSLSPSNYAALNGILYCKPHFSQLFKEKGSYNHLIKSASMKRPAATVPDS
stoichiometry N [1]: 2
